Four molecules from patent US20140274782A1, “AFFINITY REAGENTS AND METHODS FOR DETECTION, PURIFICATION, AND PROTEOMIC ANALYSIS OF METHYLATED PROTEINS” (The Board of Trustees of the Leland Stanford Junior …, priority 2013, published 2014) can be followed below.

The test system of one experiment is 3×MBT domain of L3MBTL1. In words: Triple SILAC pull-down, 3xMBT/3xMBTD355N ratio (cytoplasmic, nuclear and chromatin fractions of 293T cells).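 Note: proteins quantified with MaxQuant, requiring at least two unique peptides and quantification in both label directions, normalized to the mean of proteins from a digested loading control.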 It counts as binding, human. The conditions noted are these: SILAC ratio, pull-down by 3xMBT vs 3xMBTD355N, 293T cells.
Another experiment deals with T1, G9a and GLP (Homo sapiens, UniProt Q96KQ7+Q9H9B1).
T1 sequence (Q96KQ7 2-1210 limits assumed): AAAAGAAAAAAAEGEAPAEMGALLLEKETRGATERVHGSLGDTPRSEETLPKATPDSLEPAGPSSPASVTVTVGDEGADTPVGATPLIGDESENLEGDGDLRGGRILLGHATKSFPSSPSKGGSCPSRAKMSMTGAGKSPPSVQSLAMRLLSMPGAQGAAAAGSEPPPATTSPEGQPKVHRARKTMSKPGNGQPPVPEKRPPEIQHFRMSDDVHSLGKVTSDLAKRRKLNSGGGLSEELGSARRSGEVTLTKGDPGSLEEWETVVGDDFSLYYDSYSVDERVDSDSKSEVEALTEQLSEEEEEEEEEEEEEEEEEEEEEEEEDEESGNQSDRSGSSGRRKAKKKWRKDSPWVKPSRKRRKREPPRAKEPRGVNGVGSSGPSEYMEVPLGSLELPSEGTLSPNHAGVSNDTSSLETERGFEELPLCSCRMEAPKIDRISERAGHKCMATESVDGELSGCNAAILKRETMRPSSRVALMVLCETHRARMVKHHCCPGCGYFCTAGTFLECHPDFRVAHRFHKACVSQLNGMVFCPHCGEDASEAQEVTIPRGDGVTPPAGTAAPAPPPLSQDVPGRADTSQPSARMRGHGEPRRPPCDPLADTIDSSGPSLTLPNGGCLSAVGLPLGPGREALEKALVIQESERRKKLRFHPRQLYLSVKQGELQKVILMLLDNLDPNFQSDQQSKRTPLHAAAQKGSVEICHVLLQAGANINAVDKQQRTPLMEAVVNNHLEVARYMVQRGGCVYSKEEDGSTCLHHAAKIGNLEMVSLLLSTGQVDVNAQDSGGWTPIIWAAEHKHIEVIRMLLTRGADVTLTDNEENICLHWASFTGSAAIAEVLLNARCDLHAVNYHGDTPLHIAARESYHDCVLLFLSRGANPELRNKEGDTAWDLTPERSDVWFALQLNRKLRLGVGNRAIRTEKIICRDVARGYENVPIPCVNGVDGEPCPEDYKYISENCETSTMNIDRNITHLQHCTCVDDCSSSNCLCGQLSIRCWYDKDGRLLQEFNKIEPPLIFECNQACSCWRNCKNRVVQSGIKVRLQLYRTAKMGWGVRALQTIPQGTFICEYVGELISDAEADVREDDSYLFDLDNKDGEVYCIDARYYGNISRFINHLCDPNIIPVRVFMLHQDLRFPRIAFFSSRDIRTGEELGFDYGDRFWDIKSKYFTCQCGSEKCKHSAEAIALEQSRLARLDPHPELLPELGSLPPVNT
T1 sequence (Q9H9B1 2-1298 limits assumed): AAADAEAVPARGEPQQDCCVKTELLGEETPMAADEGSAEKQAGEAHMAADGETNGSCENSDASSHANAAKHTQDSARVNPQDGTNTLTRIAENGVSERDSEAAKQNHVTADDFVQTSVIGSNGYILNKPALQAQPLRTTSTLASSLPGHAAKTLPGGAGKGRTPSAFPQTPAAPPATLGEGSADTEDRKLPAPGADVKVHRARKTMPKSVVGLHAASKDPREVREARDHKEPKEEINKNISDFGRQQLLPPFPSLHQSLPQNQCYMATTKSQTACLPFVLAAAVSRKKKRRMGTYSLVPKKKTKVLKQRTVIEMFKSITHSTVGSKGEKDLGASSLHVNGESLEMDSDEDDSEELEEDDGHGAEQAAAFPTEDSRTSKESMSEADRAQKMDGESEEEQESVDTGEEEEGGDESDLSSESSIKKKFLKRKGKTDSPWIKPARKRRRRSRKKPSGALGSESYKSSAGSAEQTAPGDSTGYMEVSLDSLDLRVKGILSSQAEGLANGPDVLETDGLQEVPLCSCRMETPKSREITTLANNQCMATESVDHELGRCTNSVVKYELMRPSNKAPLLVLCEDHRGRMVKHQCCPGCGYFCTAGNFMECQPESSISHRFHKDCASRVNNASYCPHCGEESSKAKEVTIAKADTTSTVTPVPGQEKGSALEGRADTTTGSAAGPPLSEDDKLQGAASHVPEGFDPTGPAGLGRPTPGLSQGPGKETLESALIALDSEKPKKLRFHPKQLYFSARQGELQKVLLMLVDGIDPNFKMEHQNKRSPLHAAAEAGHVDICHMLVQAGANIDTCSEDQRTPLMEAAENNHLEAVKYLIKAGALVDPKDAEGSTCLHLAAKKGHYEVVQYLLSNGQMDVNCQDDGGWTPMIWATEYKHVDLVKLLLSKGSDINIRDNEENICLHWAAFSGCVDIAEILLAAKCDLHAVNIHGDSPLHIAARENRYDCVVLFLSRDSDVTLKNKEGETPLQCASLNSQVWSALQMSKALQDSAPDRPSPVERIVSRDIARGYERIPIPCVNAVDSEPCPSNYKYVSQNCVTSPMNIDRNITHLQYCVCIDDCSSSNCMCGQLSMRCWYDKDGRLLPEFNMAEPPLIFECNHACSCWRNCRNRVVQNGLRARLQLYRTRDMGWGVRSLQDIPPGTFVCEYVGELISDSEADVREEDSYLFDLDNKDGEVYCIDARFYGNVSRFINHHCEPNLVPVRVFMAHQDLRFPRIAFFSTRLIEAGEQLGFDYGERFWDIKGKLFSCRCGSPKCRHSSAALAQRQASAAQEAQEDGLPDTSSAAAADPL
Kind of experiment: Triple SILAC pull-down after UNC0638 treatment of 293T cells, DMSO/UNC0638 ratio of protein captured by 3×MBT.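 Note: mass spectrometry (Q-Exactive) SILAC quantitation, DMSO/UNC0638 ratio computed after subtracting 3×MBTD355N mutant pull-down background, only proteins with at least twofold 3×MBT over mutant signal considered.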 The format is cell-based. Also on record: cells were treated for 24 hours with UNC0638 at 2.5 μM or DMSO vehicle control; endogenous in cells; host or cells: HEK 293T. The conditions noted are these: SILAC ratio of protein captured by 3xMBT, 293T cells treated 24 hours with UNC0638 at 2.5 μM or DMSO.

B1: Heterogeneous nuclear ribonucleoprotein L (protein, UniProt P14866 1-589, looked up)
Heterogeneous nuclear …: MSRRLLPRAEKRRRRLEQRQQPDEQRRRSGAMVKMAAAGGGGGGGRYYGGGSEGGRAPKRLKTDNAGDQHGGGGGGGGGAGAAGGGGGGENYDDPHKTPASPVVHIRGLIDGVVEADLVEALQEFGPISYVVVMPKKRQALVEFEDVLGACNAVNYAADNQIYIAGHPAFVNYSTSQKISRPGDSDDSRSVNSVLLFTILNPIYSITTDVLYTICNPCGPVQRIVIFRKNGVQAMVEFDSVQSAQRAKASLNGADIYSGCCTLKIEYAKPTRLNVFKNDQDTWDYTNPNLSGQGDPGSNPNKRQRQPPLLGDHPAEYGGPHGGYHSHYHDEGYGPPPPHYEGRRMGPPVGGHRRGPSRYGPQYGHPPPPPPPPEYGPHADSPVLMVYGLDQSKMNCDRVFNVFCLYGNVEKVKFMKSKPGAAMVEMADGYAVDRAITHLNNNFMFGQKLNVCVSKQPAIMPGQSYGLEDGSCSYKDFSESRNNRFSTPEQAAKNRIQHPSNVLHFFNAPLEVTEENFFEICDELGVKRPSSVKVFSGKSERSSSGLLEWESKSDALETLGFLNHYQMKNPNGPYPYTLKLCFSTAQHAS
On to B1, for which, in the experiment with 3×MBT domain of L3MBTL1, the “Protein Ratios 3xMBT/D355N” value is on record as 2.4. For the same molecule, the “Protein Ratios DMSO/UNC0638” value with G9a and GLP turned out to be 1.3.

B2: Protein syndesmos (protein, UniProt Q9BRJ7 1-211, looked up)
Tudor-interacting repair …: MSTAAVPELKQISRVEAMRLGPGWSHSCHAMLYAANPGQLFGRIPMRFSVLMQMRFDGLLGFPGGFVDRRFWSLEDGLNRVLGLGLGCLRLTEADYLSSHLTEGPHRVVAHLYARQLTLEQLHAVEISAVHSRDHGLEVLGLVRVPLYTQKDRVGGFPNFLSNAFVSTAKCQLLFALKVLNMMPEEKLVEALAAATEKQKKALEKLLPASS
Consider B2, for which the “Protein Ratios 3xMBT/D355N” value with 3×MBT domain of L3MBTL1 is reported as 3.5. The “Protein Ratios DMSO/UNC0638” value in the experiment with G9a and GLP is reported as 1.3.

B3: Probable ATP-dependent RNA helicase DDX23 (protein, UniProt Q9BUQ8 1-820, looked up)
Probable ATP-dependent RNA …: MAGELADKKDRDASPSKEERKRSRTPDRERDRDRDRKSSPSKDRKRHRSRDRRRGGSRSRSRSRSKSAERERRHKERERDKERDRNKKDRDRDKDGHRRDKDRKRSSLSPGRGKDFKSRKDRDSKKDEEDEHGDKKPKAQPLSLEELLAKKKAEEEAEAKPKFLSKAEREAEALKRRQQEVEERQRMLEEERKKRKQFQDLGRKMLEDPQERERRERRERMERETNGNEDEEGRQKIREEKDKSKELHAIKERYLGGIKKRRRTRHLNDRKFVFEWDASEDTSIDYNPLYKERHQVQLLGRGFIAGIDLKQQKREQSRFYGDLMEKRRTLEEKEQEEARLRKLRKKEAKQRWDDRHWSQKKLDEMTDRDWRIFREDYSITTKGGKIPNPIRSWKDSSLPPHILEVIDKCGYKEPTPIQRQAIPIGLQNRDIIGVAETGSGKTAAFLIPLLVWITTLPKIDRIEESDQGPYAIILAPTRELAQQIEEETIKFGKPLGIRTVAVIGGISREDQGFRLRMGCEIVIATPGRLIDVLENRYLVLSRCTYVVLDEADRMIDMGFEPDVQKILEHMPVSNQKPDTDEAEDPEKMLANFESGKHKYRQTVMFTATMPPAVERLARSYLRRPAVVYIGSAGKPHERVEQKVFLMSESEKRKKLLAILEQGFDPPIIIFVNQKKGCDVLAKSLEKMGYNACTLHGGKGQEQREFALSNLKAGAKDILVATDVAGRGIDIQDVSMVVNYDMAKNIEDYIHRIGRTGRAGKSGVAITFLTKEDSAVFYELKQAILESPVSSCPPELANHPDAQHKPGTILTKKRREETIFA
For the molecule B3, the “Protein Ratios 3xMBT/D355N” value in the experiment with 3×MBT domain of L3MBTL1 came out at 4.8. The “Protein Ratios DMSO/UNC0638” value with G9a and GLP was found to be 1.3.

B4: Probable ATP-dependent RNA helicase DDX46 (protein, UniProt Q7L014 2-1031, looked up)
Probable ATP-dependent RNA …: GRESRHYRKRSASRGRSGSRSRSRSPSDKRSKRGDDRRSRSRDRDRRRERSRSRDKRRSRSRDRKRLRRSRSRERDRSRERRRSRSRDRRRSRSRSRGRRSRSSSPGNKSKKTENRSRSKEKTDGGESSKEKKKDKDDKEDEKEKDAGNFDQNKLEEEMRKRKERVEKWREEQRKKAMENIGELKKEIEEMKQGKKWSLEDDDDDEDDPAEAEKEGNEMEGEELDPLDAYMEEVKEEVKKFNMRSVKGGGGNEKKSGPTVTKVVTVVTTKKAVVDSDKKKGELMENDQDAMEYSSEEEEVDLQTALTGYQTKQRKLLEPVDHGKIEYEPFRKNFYVEVPELAKMSQEEVNVFRLEMEGITVKGKGCPKPIKSWVQCGISMKILNSLKKHGYEKPTPIQTQAIPAIMSGRDLIGIAKTGSGKTIAFLLPMFRHIMDQRSLEEGEGPIAVIMTPTRELALQITKECKKFSKTLGLRVVCVYGGTGISEQIAELKRGAEIIVCTPGRMIDMLAANSGRVTNLRRVTYVVLDEADRMFDMGFEPQVMRIVDNVRPDRQTVMFSATFPRAMEALARRILSKPIEVQVGGRSVVCSDVEQQVIVIEEEKKFLKLLELLGHYQESGSVIIFVDKQEHADGLLKDLMRASYPCMSLHGGIDQYDRDSIINDFKNGTCKLLVATSVAARGLDVKHLILVVNYSCPNHYEDYVHRAGRTGRAGNKGYAYTFITEDQARYAGDIIKALELSGTAVPPDLEKLWSDFKDQQKAEGKIIKKSSGFSGKGFKFDETEQALANERKKLQKAALGLQDSDDEDAAVDIDEQIESMFNSKKRVKDMAAPGTSSVPAPTAGNAEKLEIAKRLALRINAQKNLGIESQDVMQQATNAILRGGTILAPTVSAKTIAEQLAEKINAKLNYVPLEKQEEERQDGGQNESFKRYEEELEINDFPQTARWKVTSKEALQRISEYSEAAITIRGTYFPPGKEPKEGERKIYLAIESANELAVQKAKAEITRLIKEELIRLQNSYQPTNKGRYKVL
Take B4: in the experiment on 3×MBT domain of L3MBTL1, the “Protein Ratios 3xMBT/D355N” value is reported as 5.2. In the experiment with G9a and GLP, the “Protein Ratios DMSO/UNC0638” value is given as 1.4.
